Assay results: publication PMC10540216, “Activity Guided Azide-methyllysine Photo-trapping for Substrate Profiling of Lysine Demethylases” (Journal of the American Chemical Society, 2023)

Tested on: KDM4A-I71AzF
Test: CASI: photo-crosslinking with HEK293T cell extracts, StrepTactin enrichment and LC-MS/MS proteomics;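 also: lysates from HEK293T cells pretreated with a KDM4 inhibitor to raise proteome methylation, affinity-purified after ±UV, gel-resolved, trypsin-digested, with exclusive unique peptides per protein averaged per condition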
Assay type: binding, human
Settings: sheet "Final results but with 0.01"

B1: SRRT_HUMAN (protein, UniProt Q9BXP5 2-876, looked up)
Serrate RNA effector molecule …: GDSDDEYDRRRRDKFRRERSDYDRSRERDERRRGDDWNDREWDRGRERRSRGEYRDYDRNRRERFSPPRHELSPPQKRMRRDWDEHSSDPYHSGYEMPYAGGGGGPTYGPPQPWGHPDVHIMQHHVLPIQARLGSIAEIDLGVPPPVMKTFKEFLLSLDDSVDETEAVKRYNDYKLDFRRQQMQDFFLAHKDEEWFRSKYHPDEVGKRRQEARGALQNRLRVFLSLMETGWFDNLLLDIDKADAIVKMLDAAVIKMEGGTENDLRILEQEEEEEQAGKPGEPSKKEEGRAGAGLGDGERKTNDKDEKKEDGKQAENDSSNDDKTKKSEGDGDKEEKKEDSEKEAKKSSKKRNRKHSGDDSFDEGSVSESESESESGQAEEEKEEAEEALKEKEKPKEEEWEKPKDAAGLECKPRPLHKTCSLFMRNIAPNISRAEIISLCKRYPGFMRVALSEPQPERRFFRRGWVTFDRSVNIKEICWNLQNIRLRECELSPGVNRDLTRRVRNINGITQHKQIVRNDIKLAAKLIHTLDDRTQLWASEPGTPPLPTSLPSQNPILKNITDYLIEEVSAEEEELLGSSGGAPPEEPPKEGNPAEINVERDEKLIKVLDKLLLYLRIVHSLDYYNTCEYPNEDEMPNRCGIIHVRGPMPPNRISHGEVLEWQKTFEEKLTPLLSVRESLSEEEAQKMGRKDPEQEVEKFVTSNTQELGKDKWLCPLSGKKFKGPEFVRKHIFNKHAEKIEEVKKEVAFFNNFLTDAKRPALPEIKPAQPPGPAQILPPGLTPGLPYPHQTPQGLMPYGQPRPPILGYGAGAVRPAVPTGGPPYPHAPYGAGRGNYDAFRGQGGYPGKPRNRMVRGDPRAIVEYRDLDAPDDVDFF
- Fold change (+UV/-UV): 0.5385

B2: PR40A_HUMAN (protein, UniProt O75400 1-957, looked up)
Pre-mRNA-processing factor 40 …: MRPGTGAERGGLMVSEMESHPPSQGPGDGERRLSGSSLCSGSWVSADGFLRRRPSMGHPGMHYAPMGMHPMGQRANMPPVPHGMMPQMMPPMGGPPMGQMPGMMSSVMPGMMMSHMSQASMQPALPPGVNSMDVAAGTASGAKSMWTEHKSPDGRTYYYNTETKQSTWEKPDDLKTPAEQLLSKCPWKEYKSDSGKPYYYNSQTKESRWAKPKELEDLEGYQNTIVAGSLITKSNLHAMIKAEESSKQEECTTTSTAPVPTTEIPTTMSTMAAAEAAAAVVAAAAAAAAAAAAANANASTSASNTVSGTVPVVPEPEVTSIVATVVDNENTVTISTEEQAQLTSTPAIQDQSVEVSSNTGEETSKQETVADFTPKKEEEESQPAKKTYTWNTKEEAKQAFKELLKEKRVPSNASWEQAMKMIINDPRYSALAKLSEKKQAFNAYKVQTEKEEKEEARSKYKEAKESFQRFLENHEKMTSTTRYKKAEQMFGEMEVWNAISERDRLEIYEDVLFFLSKKEKEQAKQLRKRNWEALKNILDNMANVTYSTTWSEAQQYLMDNPTFAEDEELQNMDKEDALICFEEHIRALEKEEEEEKQKSLLRERRRQRKNRESFQIFLDELHEHGQLHSMSSWMELYPTISSDIRFTNMLGQPGSTALDLFKFYVEDLKARYHDEKKIIKDILKDKGFVVEVNTTFEDFVAIISSTKRSTTLDAGNIKLAFNSLLEKAEAREREREKEEARKMKRKESAFKSMLKQAAPPIELDAVWEDIRERFVKEPAFEDITLESERKRIFKDFMHVLEHECQHHHSKNKKHSKKSKKHHRKRSRSRSGSDSDDDDSHSKKKRQRSESRSASEHSSSAESERSYKKSKKHKKKSKKRRHKSDSPESDAEREKDKKEKDRESEKDRTRQRSESKHKSPKKKTGKDSGNWDTSGSELSEGELEKRRRTLLEQLDDDQ
- Fold change (+UV/-UV): 0.5

B3: NU155_HUMAN (protein, UniProt O75694 2-1391, looked up)
Nuclear pore complex protein …: PSSLLGAAMPASTSAAALQEALENAGRLIDRQLQEDRMYPDLSELLMVSAPNNPTVSGMSDMDYPLQGPGLLSVPNLPEISSIRRVPLPPELVEQFGHMQCNCMMGVFPPISRAWLTIDSDIFMWNYEDGGDLAYFDGLSETILAVGLVKPKAGIFQPHVRHLLVLATPVDIVILGLSYANLQTGSGVLNDSLSGGMQLLPDPLYSLPTDNTYLLTITSTDNGRIFLAGKDGCLYEVAYQAEAGWFSQRCRKINHSKSSLSFLVPSLLQFTFSEDDPILQIAIDNSRNILYTRSEKGVIQVYDLGQDGQGMSRVASVSQNAIVSAAGNIARTIDRSVFKPIVQIAVIENSESLDCQLLAVTHAGVRLYFSTCPFRQPLARPNTLTLVHVRLPPGFSASSTVEKPSKVHRALYSKGILLMAASENEDNDILWCVNHDTFPFQKPMMETQMTAGVDGHSWALSAIDELKVDKIITPLNKDHIPITDSPVVVQQHMLPPKKFVLLSAQGSLMFHKLRPVDQLRHLLVSNVGGDGEEIERFFKLHQEDQACATCLILACSTAACDREVSAWATRAFFRYGGEAQMRFPTTLPPPSNVGPILGSPVYSSSPVPSGSPYPNPSFLGTPSHGIQPPAMSTPVCALGNPATQATNMSCVTGPEIVYSGKHNGICIYFSRIMGNIWDASLVVERIFKSGNREITAIESSVPCQLLESVLQELKGLQEFLDRNSQFAGGPLGNPNTTAKVQQRLIGFMRPENGNPQQMQQELQRKFHEAQLSEKISLQAIQQLVRKSYQALALWKLLCEHQFTIIVAELQKELQEQLKITTFKDLVIRDKELTGALIASLINCYIRDNAAVDGISLHLQDICPLLYSTDDAICSKANELLQRSRQVQNKTEKERMLRESLKEYQKISNQVDLSNVCAQYRQVRFYEGVVELSLTAAEKKDPQGLGLHFYKHGEPEEDIVGLQAFQERLNSYKCITDTLQELVNQSKAAPQSPSVPKKPGPPVLSSDPNMLSNEEAGHHFEQMLKLSQRSKDELFSIALYNWLIQVDLADKLLQVASPFLEPHLVRMAKVDQNRVRYMDLLWRYYEKNRSFSNAARVLSRLADMHSTEISLQQRLEYIARAILSAKSSTAISSIAADGEFLHELEEKMEVARIQLQIQETLQRQYSHHSSVQDAVSQLDSELMDITKLYGEFADPFKLAECKLAIIHCAGYSDPILVQTLWQDIIEKELSDSVTLSSSDRMHALSLKIVLLGKIYAGTPRFFPLDFIVQFLEQQVCTLNWDVGFVIQTMNEIGVPLPRLLEVYDQLFKSRDPFWNRMKKPLHLLDCIHVLLIRYVENPSQVLNCERRRFTNLCLDAVCGYLVELQSMSSSVAVQAITGNFKSLQAKLERLH
- Fold change (+UV/-UV): 1.36
